Measurements taken from IntAct's records for PubMed 19542283.

B1: Chemotaxis protein CheA (Escherichia coli (strain K12)), P07363-2 (parent)
chain: MQEQLDAYKQSQEPDAASFDYICQALRQLALEAKGETPSAVTRLSVVAKSEPQDEQSRSQSPRRIILSRLKAGEVDLLEEELGHLTTLTDVVKGADSLSAILPGDIAEDDITAVLCFVIEADQITFETVEVSPKISTPPVLKLAAEQAPTGRVEREKTTRSNESTSIRVAVEKVDQLINLVGELVITQSMLAQRSSELDPVNHGDLITSMGQLQRNARDLQESVMSIRMMPMEYVFSRYPRLVRDLAGKLGKQVELTLVGSSTELDKSLIERIIDPLTHLVRNSLDHGIELPEKRLAAGKNSVGNLILSAEHQGGNICIEVTDDGAGLNRERILAKAASQGLTVSENMSDDEVAMLIFAPGFSTAEQVTDVSGRGVGMDVVKRNIQKMGGHVEIQSKQGTGTTIRILLPLTLAILDGMSVRVADEVFILPLNAVMESLQPREADLHPLAGGERVLEVRGEYLPIVELWKVFNVAGAKTEATQGIVVILQSGGRRYALLVDQLIGQHQVVVKNLESNYRKVPGISAATILGDGSVALIVDVSALQAINREQRMANTAA
partner: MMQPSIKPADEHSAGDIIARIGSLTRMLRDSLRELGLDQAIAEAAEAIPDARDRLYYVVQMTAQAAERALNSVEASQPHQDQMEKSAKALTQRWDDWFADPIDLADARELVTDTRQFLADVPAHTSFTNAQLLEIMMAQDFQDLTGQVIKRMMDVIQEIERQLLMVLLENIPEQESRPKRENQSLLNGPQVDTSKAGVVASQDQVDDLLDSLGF

Variants of: B1
Conditions: with chez_ecoli cheZ

Row | effect of a mutation on the interaction | Variant
1 | disrupting interaction strength | I22S
2 | decreasing interaction strength | I22A
3 | disrupting interaction strength | L26A
4 | disrupting interaction strength | L26S
5 | disrupting interaction strength | Y21S
